Test results: a protein production outcome set (Wang et al. 2014)

Assay: label from the status in PepcDB records

Sequence	protein production
MQKDKILKKIIVLCFFIFYNFNFFGLAVPSLSGPVVDKAGILSRSEFEKIENFLLDLDQKSKVQIAVLIIPSLEGESIEDYSMQVAEEWKLGDKEKDSGALLVVAVKDKKLRIEVGYGLEENLTDSRSGQIIRNFIAPQFRSGNYGEGIYDGIKAMAAYASEDESLLKEIAVSDEDDEGGFPQALLFFLFVYLMISKFSPGGLFWIFYLLSRSGRAGRSFNGRSSSRGSFFGGSIGRSSGRGFSGGGFSGGGGSFGGGGASGGW	failed
MQKKTVGLLLASAGPFLWGSSGTVAQHLFDTTTISPLWLVAVRMLVSGGLLILYGFSRRLPVMVVFHDWRATVRLIVFSLFGMAGVQLTYFMAISTGNAAMAAILQFLSPVMIIIFITATTWQLPGKVDVISVVSAIAGTVLIVTEGHTDSLALPVIAIIWGLLAAVGATIYTLMPTKLLKVYGATPIVGWSMLIGGGLVLVGTGAWHHSPQLTWVAWGQVGFVVIFGTMLAYLFFLQSLEYILPTTASVLGAIEPLAATILSVLFLHVHFNWVGLIGAIMIVGVTILQFAATRANQFVSK	failed
MQKQAELYRGKAKTVYSTENPDLLVLEFRNDTSAGDGARIEQFDRKGMVNNKFNYFIMSKLAEAGIPTQMERLLSDTECLVKKLDMVPVECVVRNRAAGSLVKRLGIEEGIELNPPLFDLFLKNDAMHDPMVNESYCETFGWVSKENLARMKELTYKANDVLKKLFDDAGLILVDFKLEFGLYKGEVVLGDEFSPDGSRLWDKETLEKMDKDRFRQSLGGLIEAYEAVARRLGVQLD	failed
MQKRAYLLIAVSGSLWGTIGIFVRELYGLGFSTLQIVTMRVFSAAVIMLLYLLFTKPELLKIRFRDSLYFVGTGILSIVFFNLCYFITIRETSIAIAVTLLYTAPAFVAILSRIIFRESLDAKKLFSLGLTLTGCAFVTGYLPELGNSPSITLPWLLTGLGAGFGYALYSIFGKVALKKYDTVTITAYTFFFASLALLPLVSFETSGEAFSTGSFWTYLIGLGFFPTVLAYLLYTKGLEEVESSRAAIVATVEPVVATFAGFFFFREIVSGWQLAGILFVLAGVVLIQERK	failed
MQKTAFIWDLDGTLLDSYEAILSGIEETFAQFSIPYDKEKVREFIFKYSVQDLLVRVAEDRNLDVEVLNQVRAQSLAEKNAQVVLMPGAREVLAWADESGIQQFIYTHKGNNAFTILKDLGVESYFTEILTSQSGFVRKPSPEAATYLLDKYQLNSDNTYYIGDRTLDVEFAQNSGIQSINFLESTYEGNHRIQALADISRIFETK	not failed
MQKTDGLADRIWVVLVQPKYQGNIGAVARSMKNSGLSKLIIVGNRPDDEAFARSMGGRQILENAEIVDSLEEIVHRFTIVAGTSSTASSNLKRFRRLPVDPETFWKQMESQTGKVALVFGREDDGLRNEELDLCNYFIYIPGNPDYPVYNLSHAVAIVLYVMYRSYVPSDMIQHESIKPEHEVLLMSNILDI	not failed
MQKVTLGLLVFLAGFPVLDANDLEDKNSPFYYDWHSLQVGGLICAGVLCAMGIIIVMSAKCKCKFGQKSGHHPGETPPLITPGSAQS	failed
MQLEVILPLVAYLVVVFGISVYAMRKRSTGTFLNEYFLGSRSMGGIVLAMTLTATYISASSFIGGPGAAYKYGLGWVLLAMIQLPAVWLSLGILGKKFAILARRYNAVTLNDMLFARYQSRLLVWLASLSLLVAFVGAMTVQFIGGARLLETAAGIPYETGLLIFGISIALYTAFGGFRASVLNDTMQGLVMLIGTVVLLIGVVHAAGGLSNAVQTLQTIDPQLVTPQGADDILSPAFMTSFWVLVCFGVIGLPHTAVRCISYKDSKAVHRGIIIGTIVVAILMFGMHLAGALGRAVIPDLTVPDLVIPTLMVKVLPPFAAGIFLAAPMAAIMSTINAQLLQSSATIIKDLYLNIRPDQMQNETRLKRMSAVITLVLGALLLLAAWKPPEMIIWLNLLAFGGLEAVFLWPLVLGLYWERANAKGALSAMIVGGVLYAVLATLNIQYLGFHPIVPSLLLSLLAFLVGNRFGTSVPQATVLTTDK	failed
MQLIRGFHNLANYDALKKGCVLTIGNFDGVHIGHQNILARLCDQSLAIGLPSVVMLFEPQPREFFAKNSQNQTASALSNAVPARLMRLRDKLKYLAEMGVDFVLCVNFNQKFAKYSAEDFITELLVKKLKVRYLSVGDDFRFGIERRGNFEMLRNAGLTHRFAVEESHTHRFDTLRISSSLIRQALQQNDLALVENLLGKPYSIRGRVAHGNKLGRTIGFPTANIMLNRLVTPIQGVFIVEVQTIYGRFNGIANVGNRPTINGTKPLLEVHIFDFNNAIYHQIIEVIFIKKIRDELKFASFTLLKEQIEKDCQQAVEFFNQLPKTK	failed
MQLNESMSTQDNSLAENYYQQAIEQWKSRDQKQALQFFKKAVRAKPSNAHYWYALAGTYHIQNKFRAARFCFEKSLNLNPNQDEIKIFLCEICYLLTDYKSVAYYAGQVDLSKIQNLEILYKVACSFKELGQLEKTGQVCSQILSLDDNFWQAKLLAAEILRIKGYSGEAKVLVLELIDQQPTVGKFWNELGINEVDLAHEDEALSAFSKAEQYVSGPEKLIIGSNYLFEFSSGLRTAKDILDAHLLWNKKYCKDQGGSFQSSKFNYLKSNDKKNIAYLSGDFKTHSVSYFIEGILENHSRDAFNIILLSNTQEDEKTKKFKELADIWIDLKLTNFETAAQIVKRLNIDILIELSGHTNGNKLNLLSSRLAPVQATYLGYFATTGLSTIDYWITDNVVHPAHTVELATETIFRLPRCYLAYTPPPQSPSIAESPVIKNGYITFGSFVASRKISDYSILLWSSILSEIPNSQLLIKNRSCVSPLYRSELIEKFSLCGISSQRINFNEAKLNLEDHLALYNKVDIALDTYPASGCTTTVEALWMGVPVLTRLGELMVSRNSASLLHALNLQNWIAETDEEYIDKGIKFTQSIEQLALLRQGMRERFMQSELYDSRGLTLHLEDFYLKALQEKLSANKEVRF	failed
MQLSWKDIPTVAPANDLLDIVLNRTQRKTPTVIRPGFKITRIRAFYMRKVKYTGEGFVEKFEDILKGFPNINDVHPFHRDLMDTLYEKNHYKISLAAISRAKSLVEQVARDYVRLLKFGQSLFQCKQLKRAALGRMATIVKKLRDPLAYLEQVRQHIGRLPSIDPNTRTLLICGYPNVGKSSFLRCITKSDVDVQPYAFTTKSLYVGHFDYKYLRFQAIDTPGILDRPTEEMNNIEMQSIYAIAHLRSCVLYFMDLSEQCGFTIEAQVKLFHSIKPLFANKSVMVVINKTDIIRPEDLDEERAQLLESVKEVPGVEIMTSSCQLEENVMEVRNKACEKLLASRIENKLKSQSRINNVLNKIHVAQPQARDDVKRTPFIPESVKNLKKYDPEDPNRRKLARDIEAENGGAGVFNVNLKDKYLLEDDEWKNDIMPEILDGKNVYDFLDPEIAAKLQALEEEEEKLENEGFYNSDDEEEIYDGFEASEVDDIKEKAAWIRNRQKTMIAEARNRKSLKNKAIMPRSKLTKSFGKMEEHMSTLGHDMSALQDKQNRAARKNRYVERGSDVVFGDQDALTASTENGVKLRQTDRLLDGVADGSMRSKADRMAKMERRERNRHAKQGESDRHNAVSLSKHLFSGKRGVGKTDFR	failed
MQLTSQAFSYGRPIPKKYSCQGVGISPPLSFSDVPREAKSLVLIVEDPDVPPSVREDGLWIHWIVYNLSPVVSNLAEGAQIFAVQGLNTAGEIGYCPPCPPDAKHRYYFYAYALDVVLSDEEGVTKEQLLEAMDGHIIATAELMGTYEKD	not failed
MQNCATGMQMDWISLLKAQQADFLLRVKKPKTYDLSLLESQVKGCHSEIMAFWGEPFAKIQEVSRRQAEILAKNPPPIPPEYPEPPDWTIPFPIHFQQQAEDYFLREQIVDRLIVERLGKLLKKLPQDTVKNMVLDDEGNLRGESKFTYLLADNPKISVQVYVADGESFNGIKKDKIKWSVTQEDLKNHQVLIFLCLFYPSTGKLGYEKQAVVAGFLPTSHIAVTEPKLYFTPSHLLYAGGLSWYLESLTAKKEAKLDFLPVVIERTIPETIQTVPSEHPRKEIIGDWECWQTLRGHMRGINCLSFSSGCENGLPMLASGSRGETKLWDLNQGELIDTLSEYPWIVSGLVDEVNSLAFSADGQMLVSGGADSTIKIWHTGALDLIDILHKHNGIVRCAAFTPDGQMLATGGDDRRILFWDLMHRQVKAILSLDDTAAHSLVLSRDGQTLVTGSYRKIKVWQTSGSWFGKNLKDAQPLHTLMGHGHIVRSLAMSKDGQLLISGSWDQTIKIWHLATGRLIRTLKGHTDKVYAIALSPDEQIIASGSSDQTIKLWHLETGELLATFTGHTDIVTALTFTTSGEMLVSGSLDKTIKLWQRS	failed
MQNLSLQKALKKPEVKTLLQQLGDSLGKNFAIFDIGGHCLWGKAQDSQPKVDIYCHQVLMGTITGEFTEHSAEAIAAMLSYIVQTEYEKKQLAKDTLQKYEEVVFLSQFANAVATCTGLQELIEVIRAEIRQVISVDEIFLYLYDQSQDSLTPLLYKTEESLQNFKAIEKIVERVLKLNQVEVIDDIQNDQDYLNQPSKIRSLLCYSLTVQNSIIGVLGLAHYQVKHFDSSDLNLFSTLTGQVAAAIRTAQYYETIKNYSQTLEIRVKERTMELEFAKQQLEQVNQRLKHLAIYDELTQIPNRRYFTSYLEQEWRQCLRQKSPISLILCDVDYFKNYNDLYGHQMGDKCLQSVAKVIQNALKRPSDVLARYGGEEFIVILPYTDQSGAYTVGQRIHHCLAEAQISHADSPTSRYLTISLGIGTTVPLLHYHPSDLIKIADQALYAAKAAGRNQTKLKTLSFQCS	failed
MQNRWAETKFDSDIDEVVYGSRLIGSDPDLVLHGGGNTSVKTTERDHAGRIISVLRVKNSGSNLGTIDSRGFTGIRMDDALAAAKIDKMTDEAMVDYLKKSMVNPSEPSPSVETFLHAFLPYKFVMHSHADAILSITNTDLPSDQIAKILGNVVVLPYIPPGFTLAKEVMNCFKKGIDGIVLRKHGLLTFGDTGKEAYDRHINIVSRAENFIREKTDGK	not failed
MQNSFLPLNTRRFRQRAQVETPDTVYWDRLAKPELLKEHNTIDYLDFSPSDPDNFVVTCSVRVQIYNLVTMLVVKNLSRFQKTAYGATFRQDGRLLAAGDEEGHVKLFDTTSRNILRLFKGHTAPVHRTFFTADKLQLASFGDDKSVRLWDVANEKVVQTYEDTHTDYVRAGAMHPQAGHMFVSGGYDGKIKLYDTRAETAVQRTLDHGAPVESMLFLPNGSIFVSAGGSQVRVWDLISGCRLLTMMSQHHKTVTCLRLGSDGRRLLSGGLDRHVKIYDVSTYKTVHTLTYPNAVVSMAVADGDQAVVAGMVDGLVSIRRMMVDSKPSHLKKIRADRARKYFVSTKRTNNTQEVDHTIKDHVKGPGLKSYDVHLRQFNHKKALDDVMNAQKMQYQPELIVAVITDLLHRGSLGKALTGRHEAALVRFIDFICNHLGEVRFMRPLMMAASTVLDVFEQRLVAYSQKLMKALQRLSLAMQEEVRLTAELMRMKGAVDMLIGISMDNSEVAHKPTYVETKTPKMHPSVAAQNYVVLVE	failed
MQNTTHDNVILELTVRNHPGVMTHVCGLFARRAFNVEGILCLPIQDSDKSHIWLLVNDDQRLEQMISQIDKLEDVVKVQRNQSDPTMFNKIAVFFQ	failed
MQPELTKTPANFPLSPLGAVVILGDIPNPELLAIPLAPTPSTMFGPRGACLVAETGALWVSDTGHHRLLGWRKLPTTDSQPADWVIGQPDFYHEGQNAKGTPGRTTVSVPTGICVCGGGLAIADAWNHRVLIWHKIPEDSNVPADLVLGQRNFSENEPNRGKQSPDANTMHWPYGVAYHQGKLFVADTGNRRLLIWQQLPTENGQPADIVLGQPDMISRNENGGGSPTAGSMRWCHDIAFWDDNLVVTDAGNNRVMIWQGIPTENNAPCAVVLGQKSFDLVEMNQGVYFPSAGSLSMPYGVGATEDWLMVADTANSRLLGWRKRESILLLQGAIADGIIGQNSFQSKSENRHFGLPTRDSLNWCYGVKVCGSTAVISDSGNNRVLLWRFLLEHHHHHH	failed
MQPFYIKKGRGSVIYSSVRKDLPPFHLFQMGKYSVVEDFSCLNNAVGDIVIGDYCRIGLGNTVIGPIRIDNGVNISQNVVLIGLDHNYQDITQGIIEQGITTSPIHIGEHTIIGANVIVLPGITIGKHCFIGAGCVVTQNIPDYCVTVGNPARIIKRYNPQSQTWEKILEHHHHHH	failed
